This is an account of results in PMC6237807.

Data set [1] concerns the target N-terminally Strep-tagII tagged wild-type QstR (Vibrio cholerae). Kind of data set: SEC; analytical SEC, Superdex 200 10/300 GL; 100 mM Tris-HCl pH 8.0, 300 mM NaCl, 1 mM EDTA; 0.5 ml/min; size estimated from a standard curve of protein standards.
The test system of data set [2] is VCA0767 (TetR family transcriptional regulator, 29 kDa) (Vibrio cholerae A1552 (A1552-TntfoX)). Kind of data set: DNA affinity pull-down, LC-MS/MS.
In data set [3] the test system is H-NS (15 kDa) (Vibrio cholerae A1552 (A1552-TntfoX)). Kind of data set: DNA affinity pull-down, LC-MS/MS.
Data set [4] has as its system NdpA nucleoid-associated protein (38 kDa) (Vibrio cholerae A1552 (A1552-TntfoX)). Kind of data set: DNA affinity pull-down, LC-MS/MS.
The test system of data set [5] is HupA, HU-alpha (9 kDa) (Vibrio cholerae A1552 (A1552-TntfoX)). Kind of data set: DNA affinity pull-down, LC-MS/MS.

For “N-terminally Strep-tagII tagged wild-type QstR (natural protein)”, the stoichiometry N in data set [1] is 2.
With gyrA pull-down probe, the binding signal (total spectra) in data set [2] was 0; in data set [3], 16; in data set [4], 6; in data set [5] it was 8.
For the substance qstR pull-down probe, the binding signal (total spectra) in data set [2] was found to be 0; in data set [3], 185; in data set [4], 10; in data set [5] it was 26.
As to comEA pull-down probe, the binding signal (total spectra) in data set [2] is 5; in data set [3], 35; in data set [4], 8; in data set [5], 8.
